Assay results from the Immune Epitope Database (IEDB).

Assays:
[1] = target: HLA-A*68:02; experiment: IEDB peptide-MHC binding, cellular MHC/competitive/fluorescence; ≥ and ≤ were set here for values at or beyond the usual limits of such assays
[2] = target: HLA-A*02:03; experiment: IEDB peptide-MHC binding, purified MHC/competitive/radioactivity; ≥ and ≤ were set here for values at or beyond the usual limits of such assays
[3] = target: HLA-A*02:01; experiment: as above
[4] = target: HLA-A*02:06; experiment: as above
[5] = target: HLA-A*02:02; experiment: as above
[6] = target: HLA-A*02:01; experiment: IEDB peptide-MHC binding, cellular MHC/competitive/fluorescence; ≥ and ≤ were set here for values at or beyond the usual limits of such assays
[7] = target: HLA-A*68:02; experiment: IEDB peptide-MHC binding, purified MHC/competitive/radioactivity; ≥ and ≤ were set here for values at or beyond the usual limits of such assays
[8] = source organism: Influenza A virus
[9] = source organism: Vaccinia virus WR
[10] = source organism: Mammarenavirus lassaense
[11] = source organism: Hepacivirus hominis
[12] = source organism: Mammarenavirus choriomeningitidis

Sequence | IC50 [1, 9] | IC50 [2, 9] | IC50 [3, 9] | IC50 [4, 9] | IC50 [5, 9] | other results
ALQLLLEV |  |  |  |  |  | IC50 [1, 8]: ≥ 70000 nM
IIGEPIIVA | 6390 nM | 4780 nM | 1440 nM | 1350 nM | 2320 nM | 
VLLPFYETL | 24300 nM | 267 nM | 7.2 nM | 218 nM | 4060 nM | 
LLMEGLKLLS |  |  |  |  |  | IC50 [1, 10]: 8470 nM; IC50 [2, 10]: 40 nM; IC50 [3, 10]: 12 nM; IC50 [4, 10]: 1750 nM; IC50 [5, 10]: 78 nM
VLWTVFHGA |  |  |  |  |  | IC50 [1, 11]: 34800 nM; IC50 [2, 11]: 836 nM; IC50 [3, 11]: 100 nM; IC50 [4, 11]: 189 nM; IC50 [5, 11]: 759 nM
FLTNKLLLFA |  |  |  |  |  | IC50 ([1]; source organism: SARS-CoV1): 11700 nM; IC50 ([2]; source organism: SARS-CoV1): 1.4 nM; IC50 ([3]; source organism: SARS-CoV1): 6.2 nM; IC50 ([4]; source organism: SARS-CoV1): 7.5 nM; IC50 ([5]; source organism: SARS-CoV1): 0.42 nM
KIILFQNNDI | 17200 nM | 2000 nM | 3660 nM | 2170 nM | 1610 nM | 
LLNMRDLIV | 23200 nM | 1.2 nM | 42 nM | 225 nM | 665 nM | 
IMRNFLRSI | 62700 nM | 0.4 nM | 2060 nM | 3920 nM | 485 nM | 
KIIAVFDSKL | 31700 nM | 57 nM | 978 nM | 59 nM | 25 nM | 
MMQNDYGGM | ≥ 70000 nM | 2740 nM | 1280 nM | 1660 nM | 1080 nM | 
YLSDSDNIKI | 7780 nM | 109 nM | 53 nM | 906 nM | 16 nM | 
TLVPVLEKKV | 32000 nM | 100 nM | 959 nM | 498 nM | 112 nM | 
DMLKLFTHDI | 6410 nM | 16 nM | 1450 nM | 2970 nM | 196 nM | 
VLPFDIKYI | 9870 nM | 9.7 nM |  | 506 nM | 135 nM | 
QLLKILDNL | 21700 nM | 319 nM | 441 nM | 135 nM | 227 nM | 
SINNQLMYDI | 6460 nM | 482 nM | 2380 nM | 4840 nM | 492 nM | 
MLDDFSAGA | 10500 nM | 73 nM | 0.43 nM | 114 nM | 68 nM | 

Sequence | IC50 [1, 9] | IC50 [2, 9] | IC50 [3, 9] | IC50 [4, 9] | IC50 [5, 9] | other results
RLIQNSITI |  |  |  |  |  | IC50 [1, 8]: ≥ 70000 nM; IC50 [2, 8]: 28 nM; IC50 [3, 8]: 84 nM; IC50 [4, 8]: 1330 nM; IC50 [5, 8]: 137 nM
FLLNKEMYL |  |  |  |  |  | IC50 ([1]; source organism: SARS-CoV1): 12000 nM; IC50 ([2]; source organism: SARS-CoV1): 1.1 nM; IC50 ([3]; source organism: SARS-CoV1): 1.1 nM; IC50 ([4]; source organism: SARS-CoV1): 1.6 nM; IC50 ([5]; source organism: SARS-CoV1): 0.33 nM
GMYYPTNDI | ≥ 70000 nM | 8.7 nM | 268 nM | 1680 nM | 53 nM | 
YIESKAKQL |  | 439 nM |  | 2990 nM | 144 nM | IC50 [6, 9]: 9620 nM; IC50 [7, 9]: 1340 nM
DVNSVQFSIL |  | 1660 nM |  | 3400 nM | 2270 nM | IC50 [6, 9]: 6660 nM; IC50 [7, 9]: 2770 nM
MMMNWSPTT |  |  |  |  |  | IC50 [1, 11]: 17900 nM; IC50 [2, 11]: 106 nM; IC50 [4, 11]: 1230 nM; IC50 [5, 11]: 311 nM
RQDYRRSINV |  | 375 nM |  | 2220 nM | 1010 nM | IC50 [6, 9]: 10200 nM; IC50 [7, 9]: 3970 nM
YAGTIKESL |  | 2490 nM |  | 3300 nM | 2070 nM | IC50 [6, 9]: 21100 nM; IC50 [7, 9]: 361 nM
KVDDTFYYV | 45500 nM |  |  |  |  | 
STAEQLSKYV |  | 1870 nM |  | 697 nM | 1060 nM | IC50 [6, 9]: 8210 nM; IC50 [7, 9]: 28 nM
ELIDVLKTRL |  | 118 nM |  | 1990 nM | 262 nM | IC50 [6, 9]: 5430 nM; IC50 [7, 9]: 1420 nM
LLGCIITSL |  |  |  |  |  | IC50 [1, 11]: ≥ 70000 nM; IC50 [2, 11]: 121 nM; IC50 [4, 11]: 3130 nM; IC50 [5, 11]: 79 nM
GLIYNRMGA |  |  |  |  |  | IC50 [1, 8]: ≥ 70000 nM; IC50 [6, 8]: 16700 nM
LNMFVSDQV |  |  |  |  |  | IC50 [6, 12]: 5760 nM; IC50 [7, 12]: 7 nM; IC50 [2, 12]: 880 nM; IC50 [4, 12]: 4810 nM; IC50 [5, 12]: 18 nM
RLIDFLKDV |  |  |  |  |  | IC50 [1, 8]: 31500 nM; IC50 [2, 8]: 7.3 nM; IC50 [4, 8]: 65 nM; IC50 [5, 8]: 16 nM
ELAYYNSCML |  | 151 nM |  | 3570 nM | 1870 nM | IC50 [6, 9]: 12500 nM; IC50 [7, 9]: 650 nM
SIMSMMNIT |  | 681 nM |  | 1760 nM | 4970 nM | IC50 [6, 9]: 7140 nM; IC50 [7, 9]: 2370 nM
YTFAISYCRA |  | 38 nM |  | 37 nM | 325 nM | IC50 [6, 9]: 10300 nM; IC50 [7, 9]: 4 nM
